The record followed here is PMC1092277.

Data set [1] deals with GST-Pax6 HD (wild type) (zebrafish). As to the kind of experiment: pull-down.
For data set [2], the target named is GST-Chx10 HD R44A (murine). The data set can be described thus: pull-down.
Data set [3] deals with GST-Pax6 HD R44A/R53A/R57A (zebrafish). As to the kind of experiment: pull-down.
The target in another data set is GST-Chx10 HD Q50A (mouse, UniProt Q61412 148-207, Q197A). The data set can be described thus: EMSA.
For a further data set, the target named is GST-Pax6 HD R57A (zebrafish, UniProt P26630 229-288, R285A). As to the kind of experiment: EMSA. For orientation: In EMSA bound probe runs differently from free probe, usually more slowly.
Chain of GST-Pax6 HD R57A (P26630 229-288 R285A): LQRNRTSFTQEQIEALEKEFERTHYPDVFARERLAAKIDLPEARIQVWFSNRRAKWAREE
For another data set, the target named is GST-Pax6 HD N51Q (zebrafish, UniProt P26630 229-288, N279Q). The data set can be described thus: EMSA.
Chain of GST-Pax6 HD N51Q (P26630 229-288 N279Q): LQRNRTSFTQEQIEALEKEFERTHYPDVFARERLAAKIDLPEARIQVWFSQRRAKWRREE
For a further data set, the target named is GST-Chx10 HD R57A (mouse, UniProt Q61412 148-207, R204A). The data set can be described thus: EMSA.
Chain of GST-Chx10 HD R57A (Q61412 148-207 R204A): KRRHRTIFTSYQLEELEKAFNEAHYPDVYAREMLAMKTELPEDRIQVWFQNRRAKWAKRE
The next data set deals with GST-Pax6 HD R53A (zebrafish, UniProt P26630 229-288, R281A). The data set can be described thus: EMSA.
Chain of GST-Pax6 HD R53A (P26630 229-288 R281A): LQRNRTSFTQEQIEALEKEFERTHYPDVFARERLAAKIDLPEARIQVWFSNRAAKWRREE
For another data set, the target named is GST-Pax6 HD R58A (zebrafish, UniProt P26630 229-288, R286A). As to the kind of experiment: EMSA.
Chain of GST-Pax6 HD R58A (P26630 229-288 R286A): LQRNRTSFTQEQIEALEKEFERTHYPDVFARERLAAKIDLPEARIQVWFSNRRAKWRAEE
The target in the next data set is GST-Pax6 HD R44A (zebrafish, UniProt P26630 229-288, R272A). As to the kind of experiment: EMSA.
Chain of GST-Pax6 HD R44A (P26630 229-288 R272A): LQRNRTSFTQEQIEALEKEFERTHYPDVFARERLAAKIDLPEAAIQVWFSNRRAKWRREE
For the next data set, the target named is GST-Chx10 HD R53A (mouse, UniProt Q61412 148-207, R200A). The data set can be described thus: EMSA.
Chain of GST-Chx10 HD R53A (Q61412 148-207 R200A): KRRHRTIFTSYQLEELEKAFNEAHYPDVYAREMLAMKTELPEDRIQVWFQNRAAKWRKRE

Chain of GST-Chx10 HD Q50A (Q61412 148-207 Q197A): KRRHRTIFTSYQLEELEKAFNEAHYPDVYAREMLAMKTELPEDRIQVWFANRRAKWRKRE

In the case of Pax6ΔHD(E112A/E120A/E128A), the percent residual binding in [1] is 15%.
Consider Pax6ΔHD(E101A/E112A/E120A/E128A), for which the percent binding in [1] amounted to 11%.
Consider Pax6ΔHD (in vitro translated), for which the percent binding in [2] came to 50%. Also, the percent binding compared with the wild-type HD in data set [3] is less than 10%.
With Pax6ΔHD(E112A/E120A/D123A/E128A), the percent binding in [1] was determined as 5%.

B1: HDp3 (dsDNA)
DNA 1: GATCCTCTAGATAATGCGATTAGCGTAG
DNA 2: GATCCTACGCTAATCGCATTATCTAGAG
Regarding B1, the binding result with GST-Chx10 HD Q50A is reported as “binds”; with GST-Pax6 HD R57A, “binds”; with GST-Pax6 HD N51Q, “no binding”; with GST-Chx10 HD R57A, “binds”; with GST-Pax6 HD R53A it was “no binding”; in the data set with GST-Pax6 HD R58A it was “binds”. Moreover, the binding result with GST-Pax6 HD R44A and with GST-Chx10 HD R53A was “no binding” throughout.
